Positions count from the first letter of the chain named. In names and notes the source's numbering stands.

For data set [1], the target named is T1, Recombinant human CCL4 (MIP-1β), wild type (human), P13236.
T1 chain: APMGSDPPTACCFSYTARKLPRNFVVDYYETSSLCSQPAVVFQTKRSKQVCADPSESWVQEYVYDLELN
Nature of the data set: SEC; Superdex 200 10/30 column, 0.5 mL/min in PBS, UV detection at 214 and 280 nm. Conditions: remark: other sources report otherwise. On the technique in general: Size exclusion chromatography separates by hydrodynamic size, large species first.

Data set [2] concerns the molecule itself. The data set is described as above.

B1: Recombinant human CCL4 (MIP-1β), wild type, P13236 24-92 (ligand)
chain: T1 chain
Turning to B1, the stoichiometry N (as a rule, a count of units in the complex or per binding partner) in data set [1] was 2.

B2: Recombinant human CCL4 variant (S80T) (ligand, UniProt P13236 24-92, looked up)
chain: T1 chain with S57T
notes: C-C motif chemokine 4 (CCL4, MIP-1β), human, natural variant Ser80Thr from SNP rs1719152, recombinant; On SEC two broad peaks: a high molecular weight aggregate (>300 kDa) and a 16 kDa dimer; also called varCCL4; variant CCL4; source: bought: Kingfisher Biotech, Inc
As for B2, in data set [2], the “stoichiometry N” value stood at 2.
